T1: MBNL1 recombinant (UniProt Q9NR56 1-388)
T1 sequence: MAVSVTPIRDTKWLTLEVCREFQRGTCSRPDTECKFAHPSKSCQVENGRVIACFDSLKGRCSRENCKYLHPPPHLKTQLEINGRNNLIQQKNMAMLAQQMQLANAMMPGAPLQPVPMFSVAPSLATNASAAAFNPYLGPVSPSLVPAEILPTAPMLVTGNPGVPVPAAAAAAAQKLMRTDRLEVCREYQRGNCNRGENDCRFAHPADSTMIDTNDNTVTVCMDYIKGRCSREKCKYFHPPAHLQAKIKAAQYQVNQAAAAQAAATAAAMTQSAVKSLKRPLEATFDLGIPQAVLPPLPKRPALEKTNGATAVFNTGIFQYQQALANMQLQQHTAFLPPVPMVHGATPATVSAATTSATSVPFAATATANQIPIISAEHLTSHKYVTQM

B1: tRF-1-Ser-UGCU-mut (ssRNA)
RNA: GAAGCGGGCAACCUUAUUUU
B2: tRF-1-Ser (ssRNA)
RNA: GAAGCGGGUGCUCUUAUUUU
B3: tRF-1-Ser unlabelled (mimic) (ssRNA)
RNA: GAAGCGGGUGCUCUUAUUUU

Experiments:
[1] = molecular target: T1, MBNL1 recombinant; assay: EMSA; EMSA: REMSA Binding Buffer (Beyotime), 4 °C, 10 min; 6% TBE PAGE in ice box; salt and pH not given; conditions: protein: commercial; label: biotin
[2] = molecular target: T1, MBNL1 recombinant; assay: competition; excess unlabelled vs biotin-labelled tRF-1-Ser; EMSA; EMSA: REMSA Binding Buffer (Beyotime), 4 °C, 10 min; 6% TBE PAGE in ice box; salt and pH not given; conditions: protein: commercial

Row | Binder | binding result [1] | binding result [2]
1 | B1 | no binding | 
2 | B2 | binds | 
3 | B3 |  | binds

— paper PMC11082093, “A 3′‐pre‐tRNA‐derived small RNA tRF‐1‐Ser regulated by 25(OH)D promotes proliferation and stemness by inhibiting the function of MBNL1 in breast cancer”
